{"source": "paper doi:10.1101/2025.05.22.655505", "about": "(bioRxiv, 2025)", "binders": {"B1": {"name": "10M2146, human anti-A28 monoclonal antibody, IgG1 (antibody, V domains shown)", "VH": "EVQLVQSGAEVKKPGESLKISCKGSGYSFTTHWIGWVRQMPGEGLEWLGIIYPGDSETKYSPSFQGQVTISVDKSINTAYLHWSSLKASDTAMYFCARRPKNYYDASGYYNWLDPWGQGTLVTVSS", "VL": "EIQMTQSPSTLSASVGDRVTITCRASQSLSTWLAWYQQKPGKAPKLLIYKASILESGVPSRFSASGSGTEFTLTISGLQPDDFATYYCQQYNSYLGAFGQGTKVEIK"}}, "key": {"[1]": {"molecular_target": "Mpox A28 (OPG153), residues 2-361, recombinant antigen (Monkeypox virus; template GenBank …, UniProt A0A7H0DNC4)", "test": "ELISA"}, "[2]": {"molecular_target": "VACV A26 (OPG153), residues 2-361, recombinant antigen (Vaccinia virus strain IHDW (GenBank …, UniProt P24758, strain))", "test": "ELISA"}}, "data": [{"binder": "B1", "values": [{"measurement": "binding result", "setting": "[1]", "value": "binds"}, {"measurement": "binding result", "setting": "[2]", "value": "binds"}]}]}
